Literature values in US20220031810A1, “FORMULATIONS OF GLUCAGON-LIKE-PEPTIDE-2 (GLP-2) ANALOGUES” (Zealand Pharma A/S, priority 2018, published 2022).
Read-outs that look alike come from different tables or passages of the source.

half-life (Gly substitution at position 2, compared with native GLP-2)	Compound	half-life (in humans)	half-life (in humans, listed as native GLP-2)
about two	CC[C@H](C)[C@H](NC(=O)[C@H](Cc1ccccc1)NC(=O)[C@H](CC(=O)O)NC(=O)[C@H](CCCNC(=N)N)NC(=O)[C@H](C)NC(=O)[C@H](C)NC(=O)[C@H](CC(C)C)NC(=O)[C@H](CC(N)=O)NC(=O)[C@H](CC(=O)O)NC(=O)[C@H](CC(C)C)NC(=O)[C@@H](NC(=O)[C@@H](NC(=O)[C@H](CC(N)=O)NC(=O)[C@H](CCSC)NC(=O)[C@H](CCC(=O)O)NC(=O)[C@H](CC(=O)O)NC(=O)[C@H](CO)NC(=O)[C@H](Cc1ccccc1)NC(=O)[C@H](CO)NC(=O)CNC(=O)[C@H](CC(=O)O)NC(=O)CNC(=O)[C@@H](N)Cc1c[nH]cn1)[C@@H](C)O)[C@@H](C)CC)C(=O)N[C@@H](CC(N)=O)C(=O)N[C@@H](Cc1c[nH]c2ccccc12)C(=O)N[C@@H](CC(C)C)C(=O)N[C@H](C(=O)N[C@@H](CCC(N)=O)C(=O)N[C@H](C(=O)N[C@@H](CCCCN)C(=O)N[C@H](C(=O)N[C@H](C(=O)N[C@@H](CC(=O)O)C(=O)O)[C@@H](C)O)[C@@H](C)CC)[C@@H](C)O)[C@@H](C)CC [teduglutide]		
	GLP-2 [3-33]: truncated GLP-2 [3-33] (DGSFSDEMNTILDNLAARDFINWLIQTKITD; Glucagon-like peptide 2; UniProt P01275 148-178, looked up, fragment)	~27 min	
	Hy-His-Ala-Asp-Gly-Ser-Phe-Ser-Asp-Glu-Met-Asn-Thr-Ile-Leu-Asp-Asn-Leu-Ala-Ala-Arg-Asp-Phe-Ile-Asn-Trp-Leu-Ile-Gln-Thr-Lys-Ile-Thr-Asp-OH [GLP-2 [1-33]]	around 7 minutes	seven
